Measurements taken from US5834428A, “Glucagon-like peptide-2 and its therapeutic use” (1149336 Ontario Inc., priority 1996, dated 1998).
“And” between values parts separate entries of the source, which are not always exact repeats. Equal values may be shown once. Ends that are not written are not given here.

B1: Glicentin: glicentin (rat), proglucagon gene-derived peptide (peptide, UniProt P06883 21-89, looked up)
Glicentin: HAPQDTEENARSFPASQTEPLEDPDQINEDKRHSQGTFTSDYSKYLDSRRAQDFVQWLMNTKRNRNNIA
modifications: Glicentin
notes: glicentin (rat), proglucagon gene-derived peptide

Columns and labels:
[1] = Complete autopsy after long term administration; assay type: in vivo, mice; details: 5 μg once a day s.c. in 10% gelatin for 4, 8 or 12 weeks
Procedure: Effect of Long Term Administration: Rat GLP-2 in a 10% gelatin formulation was administered s.c. in a single dose of 5 μg once a day continuously for 4 weeks (panel A), for 8 weeks (panel B) or for 12 weeks (panel C). FIG. 5 illustrates GLP-2 mediated effects on small bowel weight (BW) and in the crypt plus villus heights (PJ, DJ and DI) in treated groups (T), relative to a control (C) receiving 10% gelatin alone. […] A similar response was noted also for the distal jejunum.

[2] = Weight of mice during 10-day peptide treatment (Example 1); assay type: in vivo; details: individual mice
Procedure: (§1) In a first experiment designed to investigate the effect of glicentin on small bowel growth, two groups of six mice (8 week, CD1 females from Charles River Laboratories) were treated as follows. Each mouse received 41.5 μg injections every 12 hours for 10 days. The injections were delivered subcutaneously in a final volume of 16% gelatin, with 0.5 cc injected subcutaneously every 12 hours. […] Control mice received 0.5 cc of 16% gelatin solution, but no peptide, every 12 hours. Mice were fed standard rat chow with free access to food and water, until 12 hours prior to sacrifice, at which time food was withheld, and water only was given. The weight of the small bowel was ascertained by excising the entire small bowel, and removing the stomach (proximal end) and appendix/cecum/large bowel (distal end). The remaining small bowel was cleaned with saline to remove feces, and weighed.
(§2) Mice were injected with 0.5 ml of the 16% gelatin solution, without or with peptide (62.5 μg/dose). Four groups of four mice (8 week, CD1 females from Charles River Laboratories) were injected twice daily for 10 days.

Solubility in water = assay type: physicochemical; details: preparation of injection solution
small bowel = experiment: Small bowel weight in mice after 10 days of s.c. peptide in 16% gelatin (Example 1); assay type: in vivo; details: for Small bowel weight Day 10: individual mice
Procedure: as §1, with “weighed. Results were as follows:” for “weighed.”
GLP-2 formulations for injection were prepared as follows: Gelatin was dissolved in warm water to a weight ratio of 16%, and the 50 mL solution was autoclaved and cooled to room temperature. A peptide solution was then separately prepared by mixing 5 mg of GLP-2 with water at a volume slightly less than 10 mL, and then adding 1N acetic acid in a volume (10-20 μL) sufficient to dissolve the peptide completely. The pH was then readjusted to about 7.0 by addition of an equal volume of 1N NaOH (10-20 μL), and the solution volume was then adjusted to 10 mL by addition of distilled water. To prepare the formulation for injection, the 10 mL peptide solution and the 50 mL solution of 16% gelatin were combined with mixing, and aliquots for injection were drawn into a 0.5 mL insulin syringe.
as §2

[3] = 62.5 μg/dose twice daily for 10 days in 16% gelatin
[4] = group of four mice, 62.5 μg/dose twice daily for 10 days in 16% gelatin
[5] = 41.5 μg s.c. every 12 hours for 10 days in 16% gelatin

| histological abnormalities at autopsy [1] | Molecule | Weight of Mice Day 10 [2, 3] | solubility in water (Solubility in water) | Small bowel weight % body wt (small bowel; [4]) | Small bowel weight Average (small bowel; [4]) | Small bowel weight Day 10 (small bowel; [3]) | Weight of Mice Day 10 [2, 5] | intestinotrophic effect (small bowel; 41.5 μg s.c. every 12 hours for 10 days) | Small bowel weight Day 10 (small bowel; [5]) |
| --- | --- | --- | --- | --- | --- | --- | --- | --- | --- |
| no histological abnormalities found | HADGSFSDEMNTILDNLATRDFINWLIQTKITD [rat GLP-2] | 23.7 gm and 25.7 gm and 27.1 gm and 25.4 gm | – | – | – | – | – | – | – |
| – | GLP-1: human GLP-1 (7-36 amide), custom synthesized by tBoc-based solid phase approach [reference compound] | 24.8 gm and 22.8 gm and 26.5 gm | relative greater solubility in water | 5.26 ± .2 % body wt | 1.33 ± .04 gm | 1.4 gm and 1.3 gm and 1.2 gm | – | – | – |
| – | B1 | – | dissolved easily | – | – | – | 26.6 gm and 26.2 gm and 24.5 gm and 24.7 gm and 25.8 gm | modest | 1.6 gm and 1.7 gm and 1.3 gm and 1.9 gm |
